From patent US20190083615A1 (Merck Sharp & Dohme, published 2019) come the findings set out here.

Sequences and labels used below:
T1: human LAG3 (Lymphocyte Activation Gene-3) expressed on cells (human, UniProt P18627 23-525)
T1 sequence: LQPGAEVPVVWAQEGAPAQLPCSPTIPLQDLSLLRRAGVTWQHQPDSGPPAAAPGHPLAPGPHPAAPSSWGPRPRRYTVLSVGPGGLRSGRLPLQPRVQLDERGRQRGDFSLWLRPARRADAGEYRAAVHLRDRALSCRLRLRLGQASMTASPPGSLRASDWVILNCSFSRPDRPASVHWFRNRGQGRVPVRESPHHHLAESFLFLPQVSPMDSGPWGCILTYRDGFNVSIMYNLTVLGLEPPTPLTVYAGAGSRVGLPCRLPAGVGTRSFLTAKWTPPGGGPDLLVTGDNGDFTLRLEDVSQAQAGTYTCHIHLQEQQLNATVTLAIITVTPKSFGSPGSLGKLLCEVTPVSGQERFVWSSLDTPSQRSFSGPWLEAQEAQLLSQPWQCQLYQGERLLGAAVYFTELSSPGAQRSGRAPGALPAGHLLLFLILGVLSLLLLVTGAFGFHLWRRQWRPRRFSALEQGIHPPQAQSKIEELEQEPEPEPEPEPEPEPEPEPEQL

T2: human LAG3-huFc recombinant protein (human, UniProt P18627 23-450, limits assumed, biotinylated in the runs with humanized and chimeric antibodies (Example 11))
T2 construct: also called human LAG3-Fc; huLAG3-huFc; not shown: human Fc
T2 sequence: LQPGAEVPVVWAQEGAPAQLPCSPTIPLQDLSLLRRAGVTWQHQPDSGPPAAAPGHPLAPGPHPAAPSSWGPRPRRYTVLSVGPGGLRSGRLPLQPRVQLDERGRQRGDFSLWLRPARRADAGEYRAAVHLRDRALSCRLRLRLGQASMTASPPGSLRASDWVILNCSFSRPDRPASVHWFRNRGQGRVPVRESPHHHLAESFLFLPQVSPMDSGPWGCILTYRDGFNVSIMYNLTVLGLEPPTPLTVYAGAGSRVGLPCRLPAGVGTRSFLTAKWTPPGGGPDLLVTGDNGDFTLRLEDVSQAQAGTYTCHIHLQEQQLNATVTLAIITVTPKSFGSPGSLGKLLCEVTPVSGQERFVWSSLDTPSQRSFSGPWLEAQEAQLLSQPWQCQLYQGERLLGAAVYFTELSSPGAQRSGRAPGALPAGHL

T3: Human LAG3-His: [VEGF leader]-LAG3_H-[His9G] (human, UniProt P18627 23-450)
T3 construct: also called human LAG3-His tagged recombinant protein; hLAG3-His
T3 sequence: T2 sequence

B1: mouse anti-human LAG3 antibody LB148.11C9.1C1 (antibody, mouse IgG1, V domains shown)
VH: QVQLQQPGAELVMPGASAKMSCKASGYTLTDYWMHWVKQRPGQGLEWIGAIDISDSYSSYNQKFKGKATLTVDESSSTAYMQLTSLTSEDSAVYYCARSPFYNSRGGNYFDYWGQGTTLTVSS
VL: DIQMTQTTSSLSASLGDRVTISCRASQDISNYLNWYQQKPDGTVKLLIYYTSRLHSGVPSRFSGSGSGTDYSLTISNLEQEDIATYFCQQGDTLPPWTFGGGTKLEIK
notes: also called Lag3 clone 11C9
B2: mouse anti-human LAG3 antibody LB148.19E8.G1.1A1 (antibody, mouse IgG2b, V domains shown)
VH: QIRLQQSGPELVKPGASVKISCKASGSSFTDYYINWVKQKPGQGLEWIGWIYPGSGNSIYNENFKAKATLTVDTSSSTAYMHLSSLTSEDTAVYFCAREADYDDALDYWGQGTSVTVSS
VL: HILLTQSPAILSVSPGERVSFSCRASQSIGTSIHWYQQRTNGSPRLLIKYASESISGIPSRFSGSGSGTDFTLSINSVESEDIADYYCQQSNSWPTYTFGGGTKLEIK
notes: also called Lag3 clone 19E8
B3: mouse anti-human LAG3 antibody LB148.4A10.1H1 (antibody, mouse IgG2a, V domains shown)
VH: EVQLLQSGAELVRSGASVKLSCTASGFNIEDYYMHWMKQRPEQGLEWIGWIDPVNGDTEYAPKFQGKATMTADTSSNTAYLHLNSLTSEDTAVYYCNFYDGYLFAFWGQGTLVTVSA
VL: DIVLTQAAPSVPVTPGESVSISCRSSKSLLHSDGNTYLYWLLQRPGQSPQLLIYRMSNLASGVPDRFSGSGSGTVFTLRISRLEAEDVGIYYCMQHLEYPFTFGGGTKLEIK
notes: also called Lag3 clone 4A10
B4: mouse anti-human LAG3 antibody LB145.22D2.E1.1D1 (antibody, mouse IgG2a, V domains shown)
VH: EVLLLQSGPELVKPGTSVKIPCKASGYTFTDYNVDWVKQRHGKGLEWIGDINPNNGGTIYSQKFKGKATLTVDKSSSTAFMELRSLTSEDTAVYFCARNYRWFGAMDHWGQGTSVTVSS
VL: DIVLTQSPASLAVSPGQRATISCKASQSLDYEGDSDMNWYQQKPGQPPRLLISGASNLESGIPARFSGSGSGTDFTVNIHPVEEEDAATYYCQQSTEDPRTFGGGTKLEIK
notes: also called Lag3 clone 22D2; LB145.22D2.E1.D1
B5: 22D2 chimera: chimeric antibody [LAG3_H] mAb (LB145.22D2.E1.D1 (VH0/VL0) Geneart) IgG4 S228P/kappa (PX) (antibody, V domains shown)
VH: B4 VH
VL: B4 VL
notes: It is described as the parental LB145.22D2.E1.D1 VH0/VL0 on human IgG4 with the hinge-stabilizing S228P mutation and kappa; also called Chimeric 22D2; chimeric 22D2
B6: Ab5: humanized light chain 45AGX Humanized x[LAG3_H] mAb (LB145.22D2.E1.D1 (VL3)) Kappa (PX) and humanized heavy chain 57AHH Humanized x[LAG3_H] mAb … (antibody)
heavy: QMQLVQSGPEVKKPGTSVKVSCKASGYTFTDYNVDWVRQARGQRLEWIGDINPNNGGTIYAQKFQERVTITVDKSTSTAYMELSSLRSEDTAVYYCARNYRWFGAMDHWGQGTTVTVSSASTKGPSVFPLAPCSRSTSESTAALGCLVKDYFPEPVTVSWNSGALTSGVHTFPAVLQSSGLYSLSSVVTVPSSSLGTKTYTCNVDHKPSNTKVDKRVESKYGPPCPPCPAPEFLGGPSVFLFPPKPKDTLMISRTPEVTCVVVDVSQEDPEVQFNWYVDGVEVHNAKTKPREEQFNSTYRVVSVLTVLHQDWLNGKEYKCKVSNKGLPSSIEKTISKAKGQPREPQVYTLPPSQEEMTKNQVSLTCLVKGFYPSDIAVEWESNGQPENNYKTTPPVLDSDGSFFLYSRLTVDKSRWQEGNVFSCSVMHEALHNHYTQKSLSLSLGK
light: DIVMTQTPLSLSVTPGQPASISCKASQSLDYEGDSDMNWYLQKPGQPPQLLIYGASNLESGVPDRFSGSGSGTDFTLKISRVEAEDVGVYYCQQSTEDPRTFGGGTKVEIKRTVAAPSVFIFPPSDEQLKSGTASVVCLLNNFYPREAKVQWKVDNALQSGNSQESVTEQDSKDSTYSLSSTLTLSKADYEKHKVYACEVTHQGLSSPVTKSFNRGEC
notes: Humanized 22D2, IgG4 S228P/kappa; also called Hu22D2 VH6/VL3 (Ab 5); hu22D2 VH6/VL3

“And” between values parts separate entries of the source, which are not always exact repeats. Identical values can stand only once.

The target in one assay is T1, human LAG3 (Lymphocyte Activation …). The assay is described as follows: cell-based or functional assay.
As for B1, the “EC50 for IL-2 rescue, hLAG3-3A9 T cell system” value (from here on “EC50 for IL-2 rescue”) was 3.56 nM and 4.06 nM.

Consider B2, for which the “EC50 for IL-2 rescue” value was 1.74 nM and 1.83 nM.

Consider B3, for which the “EC50 for IL-2 rescue” value was 2.83 nM and 2.96 nM.

For the molecule B4, the “EC50 for IL-2 rescue” value was 1.06 nM and 1.65 nM.

Another assay has the same target. Kind of assay: cell based KinExA, BaF/3 cells transfected with human LAG3 (n=2). How it is done: The affinities of the LAG3 antibodies for LAG3 were determined using a cell based Kinetic Exclusion Assay (KinExA). Cell based KinExA can be used to measure the affinity of a molecule for a binding partner on a cell surface (Rathanaswami et al. Analylitical Biochemistry 373(1): 52-60 (2008); Xie et al. J. Immunol. Methods 304 (1-2): 1-14 (2005)). In this case, BaF/3 cells were stably transfected with human and cynomolgus monkey LAG3 proteins. Transfected cells or the parental BaF/3 control cell line were grown to a density of 1.7×10⁶ to 3.2×10⁶ cells per ml at 37° C., 120 RPM, 5% CO₂, in 1X RPMI 1640 media with 10% FBS, 10 ng/ml IL-3, 5 μg/ml puromycin. Cells were concentrated, mixed with 15 pM or 150 pM antibody in cell culture media and incubated 24 to 48 hours at room temperature while rotating at 20 to 30 RPM. Cells were present at a top concentration of 2×10⁷ cells per ml (parental BaF/3 or cynomolgus LAG3 transfectants) or 1×10⁷ cells per ml (human LAG3 transfectants) and diluted in a 2-fold, 18 member series. The cells were pelleted and free antibody in the supernatant was measured using a KinExA 3200 instrument (Sapidyne, Id., USA). […] Antibody on the beads was labeled with 1.5 μg/ml Alexa Fluor® 647 conjugated goat anti-human (Fab′)₂ (Jackson ImmunoResearch Laboratories), washed and the fluorescent signal was read all using the KinExA™ 3200. The data from the 15 pM and 150 pM concentrations of each antibody were fit simultaneously using KinExA™ Pro n-Curve Analysis software version 4.0.11 (Sapidyne).
Background: A kinetic exclusion assay measures how much of one partner remains free in solution.
On to B5, for which the Kd is 0.003 nM.

As for B6, the Kd was 0.006 nM. This Kd lies about 2-fold higher than the previous one.

In another assay the target is T2, human LAG3-huFc recombinant protein. Kind of assay: flow cytometry, blockade of human LAG3-huFc binding to MHC class II on Daudi cells. The protocol: (§1) Mouse anti-human LAG3 clones were tested for their ability to block hLAG3 interaction with human MHC Class II. Daudi cells (ATCC #CCL-213) were used as a cell line positive for human MHC class II expression. Daudi cells were blocked with 10 ug/ml of goat IgG in HBSS and 2% BCS on ice for 30 minutes and 0.5×10⁶ cells/sample were aliquoted into a 96-well V-bottom plate and blocking buffer removed. […] Cells were pelleted by centrifugation at 1200 rpm and washed twice with HBSS/2% BCS. […] Cells were washed twice as described above, resuspended in HBSS/2% BCS and read on the FACSCalibur.
(In general: Flow cytometry measures light scatter and fluorescence of single cells or particles in a stream.)
B1: the IC50 was 2 nM.

Turning to B2, the IC50 was determined as 2.8 nM.

Turning to B3, the IC50 came out at 1.9 nM.

Regarding B4, the IC50 turned out to be 2.1 nM.

A further assay shares this target. Kind of assay: flow cytometry, blockade of human LAG3-huFc (2 ug/ml) binding to MHC class II on Daudi cells. The protocol:
as §1
For the molecule B1, the IC50 is 2 nM.

For B2, the IC50 came out at 2.8 nM.

Regarding B3, the IC50 turned out to be 1.9 nM.

Take B4: the IC50 came to 2.1 nM.

The next assay concerns the target T3, Human LAG3-His: [VEGF …. The assay is described as follows: SPR (Biacore T200), antibody captured on goat anti-mouse Fc, human LAG3-His as analyte, 1:1 Langmuir fit. How it is done:
Mouse anti-human LAG3 clones listed above were injected over the immobilized goat anti-mouse surfaces at 1 ug/mL for a capture level of 40 RU. HBS-EP+ buffer (BR-1006-69) was used as the running buffer with a flow rate of 30 μL/min.
Varying concentrations of human LAG3-His protein ranging from 0.15 nM to 18.8 nM, at a flow rate of 40 μL/min were injected over the antibody surfaces.
Background subtraction binding sensorgrams were used for analyzing the rate constant of association (kₐ) and dissociation (kd), and the equilibrium dissociation constant KD. The resulting data sets were fitted with a 1:1 Langmuir Binding Model using the Biacore T200 evaluation software (version 2.0).
(SPR reads the build-up and loss of mass on a sensor chip optically.)
B1 gave a Kd of 1.47 nM, a koff of 0.00192 s⁻¹ and a kon of 1.31e+06 M⁻¹ s⁻¹.

In turn, B2 registered a Kd of 0.0147 nM, a koff of 0.000109 s⁻¹ and a kon of 7.43e+06 M⁻¹ s⁻¹.

As to B3, the Kd was 0.0903 nM, the koff was found to be 0.000113 s⁻¹ and the kon is 1.25e+06 M⁻¹ s⁻¹.

Turning to B4, the Kd was determined as 0.00277 nM, the koff amounted to 3.84e-05 s⁻¹ and the kon worked out at 1.39e+07 M⁻¹ s⁻¹.

For a further assay, the target named is T2, human LAG3-huFc recombinant protein. Kind of assay: flow cytometry, blockade of biotinylated human LAG3-huFc binding to MHC class II on Daudi cells, streptavidin-PE. The protocol:
as §1, with “anti-human LAG3 and humanized anti-LAG3 clones were” for “anti-human LAG3 clones were”
Turning to B5, the IC50 worked out at 2.5 nM.

On to B6, for which the IC50 was 2.6 nM.

By Kd is commonly meant the free concentration of one partner at which half of the binding sites on the other are occupied at equilibrium, for simple one-to-one binding. Low values mean higher affinity, high ones lower affinity. As usually defined, the IC50 is the concentration at which inhibition is half-maximal. For orientation: koff means the rate constant with which the complex falls apart. Lower therefore signals slow dissociation. What is called kon is the second-order rate constant of association. A high value points to fast association.
